Here are results for two substances from article PMC9954413.

One assay deals with UbcH5B (Homo sapiens) (UniProt P62837). The experiment in a line: ITC. The following applies: cited from earlier work.
In assay [1] the target is Arkadia (RNF111) LONG, residues 876-994 (Ark LONG, 119 aa) (human) (UniProt Q6ZNA4).
The target is the same in assay [2]. In words: ITC; 1-3 mM E2 in the syringe injected (2 uL, 15-19 injections) into 100-300 uM Arkadia polypeptide in the cell; 25 °C; 50 mM KH2PO4, 50 mM K2HPO4 pH 7; single-site model. In general terms: In ITC the heat of successive injections is recorded.
Assay [3] addresses Arkadia LONG R983A (human) (UniProt Q6ZNA4). The assay is described as above.
The target in assay [4] is Arkadia LONG R983K (human) (UniProt Q6ZNA4). Described as above.

As a reminder, the Kd is the equilibrium constant for the complex coming apart. What is called stoichiometry N is a count of units in the complex or per binding partner.

Chain of Arkadia (RNF111) LONG, residues 876-994 (Ark LONG, 119 aa) (human) (Q6ZNA4 876-994): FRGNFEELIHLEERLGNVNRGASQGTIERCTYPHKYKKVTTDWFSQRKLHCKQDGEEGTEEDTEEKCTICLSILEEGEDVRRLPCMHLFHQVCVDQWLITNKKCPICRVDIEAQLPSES
Chain of UbcH5B (UBE2D2) (P62837 whole entry): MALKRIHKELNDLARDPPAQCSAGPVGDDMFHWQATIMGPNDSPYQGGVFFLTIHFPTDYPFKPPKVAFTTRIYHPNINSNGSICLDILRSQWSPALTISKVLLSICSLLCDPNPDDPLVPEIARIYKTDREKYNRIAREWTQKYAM
Chain of Arkadia LONG R983K (human) (Q6ZNA4 876-994 R983K): as the sequence (Q6ZNA4 876-994) above, with R108K counted along it
Chain of Arkadia LONG R983A (human) (Q6ZNA4 876-994 R983A): as the sequence (Q6ZNA4 876-994) above, with R108A counted along it
Chain of Arkadia RING RING (Q6ZNA4 939-986): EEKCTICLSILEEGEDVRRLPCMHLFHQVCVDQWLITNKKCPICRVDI
Chain of UbcH5B (Homo sapiens) (P62837 whole entry, the tested form may be a part): as the sequence (P62837 whole entry) above

For Arkadia RING RING (from UniProt Q6ZNA4), the Kd with UbcH5B (Homo sapiens) is 32 µM.
Substance “UbcH5B (UBE2D2) (from UniProt P62837 1-147) (enzyme)” returned an in vitro auto-ubiquitylation of Ark LONG: time until polyubiquitylation is achieved in assay [1] of 5 min. In addition, the dH was -4.7 kcal/mol in assay [2], -5.8 kcal/mol in assay [3] and -3.6 kcal/mol in assay [4]. Also, the stoichiometry N in assay [2] is 0.6; in assay [3], 0.7; in assay [4], 0.5.
